# Experimental data taken from patent US20240173421A1 (Seagen, published 2024).
# Like-named read-outs stand apart in the source and are kept apart here.
# What was measured:
# [1] = target: T1, CD16a (FcγRIIIa) on Jurkat NFAT reporter cells (UniProt P08637 17-254, limits assumed); test: cell-based or functional assay
# [2] = target: FcgRIa (NFAT activity assay) (UniProt P12314 16-374); test: cell-based or functional assay
# [3] = target: T2, FcgRIIa (NFAT activity assay) (UniProt P12318 34-317); test: cell-based or functional assay
# T2 sequence (looked up): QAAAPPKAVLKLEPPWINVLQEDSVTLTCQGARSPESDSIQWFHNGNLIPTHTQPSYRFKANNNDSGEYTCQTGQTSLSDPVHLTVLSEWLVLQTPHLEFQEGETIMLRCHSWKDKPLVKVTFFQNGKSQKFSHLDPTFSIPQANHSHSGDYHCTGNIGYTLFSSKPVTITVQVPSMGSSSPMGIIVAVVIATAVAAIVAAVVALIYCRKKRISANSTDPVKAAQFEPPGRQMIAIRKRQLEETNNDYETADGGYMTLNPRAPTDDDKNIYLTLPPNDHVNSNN
# [4] = target: T1, CD16a (FcγRIIIa) on Jurkat NFAT …; test: cell-based or functional assay; remark: listed apart in the source
# [5] = target: T1, CD16a (FcγRIIIa) on Jurkat NFAT …; test: cell-based or functional assay; remark: listed apart in the source
# [6] = target: T1, CD16a (FcγRIIIa) on Jurkat NFAT …; test: cell-based or functional assay; remark: listed apart in the source
# [7] = target: T1, CD16a (FcγRIIIa) on Jurkat NFAT …; test: cell-based or functional assay; remark: listed apart in the source
# [8] = target: T1, CD16a (FcγRIIIa) on Jurkat NFAT …; test: cell-based or functional assay; remark: listed apart in the source
# [9] = target: T1, CD16a (FcγRIIIa) on Jurkat NFAT …; test: cell-based or functional assay; remark: listed apart in the source
# FcgRIIb = target: T3, FcgRIIb (human, UniProt P31994 43-217, biotinylated); test: BLI, FcγR-monomeric Fc fusion on streptavidin sensor
# T3 sequence (looked up): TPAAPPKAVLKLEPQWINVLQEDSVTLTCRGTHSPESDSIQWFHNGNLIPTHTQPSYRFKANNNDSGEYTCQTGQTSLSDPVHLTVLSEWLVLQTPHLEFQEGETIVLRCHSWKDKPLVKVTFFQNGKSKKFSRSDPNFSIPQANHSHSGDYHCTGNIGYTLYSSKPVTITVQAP
# T1 sequence (P08637 17-254 limits assumed): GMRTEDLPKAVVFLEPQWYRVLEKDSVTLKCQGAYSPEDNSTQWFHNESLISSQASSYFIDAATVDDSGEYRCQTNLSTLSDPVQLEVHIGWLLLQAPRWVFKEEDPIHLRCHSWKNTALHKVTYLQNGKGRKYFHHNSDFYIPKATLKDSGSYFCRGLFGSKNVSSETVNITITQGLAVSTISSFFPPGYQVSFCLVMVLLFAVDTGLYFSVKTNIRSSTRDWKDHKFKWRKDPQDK
# FcgRIa (NFAT activity assay), sequence (P12314 16-374): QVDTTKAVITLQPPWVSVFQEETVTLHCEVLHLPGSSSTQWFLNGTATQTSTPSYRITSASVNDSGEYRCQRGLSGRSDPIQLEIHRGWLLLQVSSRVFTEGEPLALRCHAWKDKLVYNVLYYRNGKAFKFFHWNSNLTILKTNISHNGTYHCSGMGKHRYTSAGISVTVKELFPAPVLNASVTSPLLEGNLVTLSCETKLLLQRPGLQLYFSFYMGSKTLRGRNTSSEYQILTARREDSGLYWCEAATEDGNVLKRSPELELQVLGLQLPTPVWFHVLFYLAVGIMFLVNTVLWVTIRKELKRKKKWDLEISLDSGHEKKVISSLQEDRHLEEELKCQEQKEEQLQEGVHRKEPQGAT
binder,measurement,setting,value
"Anti-CD40-WT (antibody, human IgG1, kappa) heavy: not shown light: DIQMTQSPSSLSASVGDRVTITCRSSQSLVHSNGNTFLHWYQQKPGKAPKLLIYTVSNRFSGVPSRFSGSGSGTDFTLTISSLQPEDFATYFCSQTTHVPWTFGQGTKVEIKRTVAAPSVFIFPPSDEQLKSGTASVVCLLNNFYPREAKVQWKVDNALQSGNSQESVTEQDSKDSTYSLSSTLTLSKADYEKHKVYACEVTHQGLSSPVTKSFNRGEC","EC50, NFAT activity assay",[1],0.16 µg/mL
same,"EC50, NFAT activity assay",[2],0.09 µg/mL
same,"EC50, NFAT activity assay",[3],0.08 µg/mL
"Anti-CD40-AF-10 (antibody, human IgG1, kappa, reduced interchain-disulfide cysteine carries compound 10; afucosylated N-glycan; reduced interchain-disulfide cysteines carry compound 10 (maleimidopropionyl-PEG48)) heavy: not shown light: DIQMTQSPSSLSASVGDRVTITCRSSQSLVHSNGNTFLHWYQQKPGKAPKLLIYTVSNRFSGVPSRFSGSGSGTDFTLTISSLQPEDFATYFCSQTTHVPWTFGQGTKVEIKRTVAAPSVFIFPPSDEQLKSGTASVVCLLNNFYPREAKVQWKVDNALQSGNSQESVTEQDSKDSTYSLSSTLTLSKADYEKHKVYACEVTHQGLSSPVTKSFNRGEC","EC50, NFAT activity assay",[1],2.09 µg/mL
same,"EC50, NFAT activity assay",[2],3.73 µg/mL
same,"EC50, NFAT activity assay",[3],227 µg/mL
"Anti-CD40-AF (afucosylated) (antibody, human IgG1, kappa) heavy: not shown light: DIQMTQSPSSLSASVGDRVTITCRSSQSLVHSNGNTFLHWYQQKPGKAPKLLIYTVSNRFSGVPSRFSGSGSGTDFTLTISSLQPEDFATYFCSQTTHVPWTFGQGTKVEIKRTVAAPSVFIFPPSDEQLKSGTASVVCLLNNFYPREAKVQWKVDNALQSGNSQESVTEQDSKDSTYSLSSTLTLSKADYEKHKVYACEVTHQGLSSPVTKSFNRGEC","EC50, NFAT activity assay",[1],0.05 µg/mL
same,"EC50, NFAT activity assay",[2],0.07 µg/mL
same,"EC50, NFAT activity assay",[3],0.09 µg/mL
same,"EC50 (read off the curve), FcγRIIIa NFAT reporter assay",[4],~0.001 µg/mL
same,"EC50 (read off the curve), FcγRIIIa NFAT reporter assay",[5],~0.001 µg/mL
same,"EC50 (read off the curve), FcγRIIIa NFAT reporter assay",[6],~0.01 µg/mL
same,"EC50 (read off the curve), FcγRIIIa NFAT reporter assay",[7],~0.01 µg/mL
same,"EC50 (read off the curve), CD16a NFAT reporter assay",[8],~0.003 µg/mL
"Anti-CD40-AF-17 (antibody, human IgG1, kappa, reduced interchain-disulfide cysteine carries compound 17; afucosylated N-glycan; reduced interchain-disulfide cysteines carry compound 17 (maleimidocaproyl-(PEG4)2)) heavy: not shown light: DIQMTQSPSSLSASVGDRVTITCRSSQSLVHSNGNTFLHWYQQKPGKAPKLLIYTVSNRFSGVPSRFSGSGSGTDFTLTISSLQPEDFATYFCSQTTHVPWTFGQGTKVEIKRTVAAPSVFIFPPSDEQLKSGTASVVCLLNNFYPREAKVQWKVDNALQSGNSQESVTEQDSKDSTYSLSSTLTLSKADYEKHKVYACEVTHQGLSSPVTKSFNRGEC","EC50 (read off the curve), FcγRIIIa NFAT reporter assay",[4],~0.007 µg/mL
"Anti-CD40-AF-1(8) (antibody, reduced interchain-disulfide cysteine carries compound 1; afucosylated N-glycan; reduced interchain-disulfide cysteines carry compound 1 (disulfide-PEG12)) heavy: not shown light: DIQMTQSPSSLSASVGDRVTITCRSSQSLVHSNGNTFLHWYQQKPGKAPKLLIYTVSNRFSGVPSRFSGSGSGTDFTLTISSLQPEDFATYFCSQTTHVPWTFGQGTKVEIKRTVAAPSVFIFPPSDEQLKSGTASVVCLLNNFYPREAKVQWKVDNALQSGNSQESVTEQDSKDSTYSLSSTLTLSKADYEKHKVYACEVTHQGLSSPVTKSFNRGEC","EC50 (read off the curve), FcγRIIIa NFAT reporter assay",[9],~0.007 µg/mL
"Anti-CD40-AF-12 with 2 load (antibody, human IgG1, kappa, afucosylated N-glycan; compound 12 (maleimidocaproyl-PEG12) on reduced interchain-disulfide cysteines, 2 per antibody, sites not stated) heavy: not shown light: DIQMTQSPSSLSASVGDRVTITCRSSQSLVHSNGNTFLHWYQQKPGKAPKLLIYTVSNRFSGVPSRFSGSGSGTDFTLTISSLQPEDFATYFCSQTTHVPWTFGQGTKVEIKRTVAAPSVFIFPPSDEQLKSGTASVVCLLNNFYPREAKVQWKVDNALQSGNSQESVTEQDSKDSTYSLSSTLTLSKADYEKHKVYACEVTHQGLSSPVTKSFNRGEC","EC50 (read off the curve), FcγRIIIa NFAT reporter assay",[7],~0.001 µg/mL
"Anti-CD40-AF-1(6) (antibody, human IgG1, kappa, afucosylated N-glycan; compound 1 (disulfide-PEG12) on reduced interchain-disulfide cysteines, 6 per antibody, sites not stated, 6 BPM per antibody; also called Anti-CD40-AF-1 6-load) heavy: not shown light: DIQMTQSPSSLSASVGDRVTITCRSSQSLVHSNGNTFLHWYQQKPGKAPKLLIYTVSNRFSGVPSRFSGSGSGTDFTLTISSLQPEDFATYFCSQTTHVPWTFGQGTKVEIKRTVAAPSVFIFPPSDEQLKSGTASVVCLLNNFYPREAKVQWKVDNALQSGNSQESVTEQDSKDSTYSLSSTLTLSKADYEKHKVYACEVTHQGLSSPVTKSFNRGEC",Kd,FcgRIIb,25 µM
"Anti-CD40-AF-1(2) (antibody, human IgG1, kappa, afucosylated N-glycan; compound 1 (disulfide-PEG12) on reduced interchain-disulfide cysteines, 2 per antibody, sites not stated, 2 BPM per antibody; also called Anti-CD40-AF-1 2-load) heavy: not shown light: DIQMTQSPSSLSASVGDRVTITCRSSQSLVHSNGNTFLHWYQQKPGKAPKLLIYTVSNRFSGVPSRFSGSGSGTDFTLTISSLQPEDFATYFCSQTTHVPWTFGQGTKVEIKRTVAAPSVFIFPPSDEQLKSGTASVVCLLNNFYPREAKVQWKVDNALQSGNSQESVTEQDSKDSTYSLSSTLTLSKADYEKHKVYACEVTHQGLSSPVTKSFNRGEC","EC50 (read off the curve), FcγRIIIa NFAT reporter assay",[6],~0.003 µg/mL
same,Kd,FcgRIIb,21 µM
"Anti-CD40-AF-9(8) (antibody, human IgG1, kappa, reduced interchain-disulfide cysteine carries compound 9; afucosylated N-glycan; reduced interchain-disulfide cysteines carry compound 9 (maleimidopropionyl-PEG12)) heavy: not shown light: DIQMTQSPSSLSASVGDRVTITCRSSQSLVHSNGNTFLHWYQQKPGKAPKLLIYTVSNRFSGVPSRFSGSGSGTDFTLTISSLQPEDFATYFCSQTTHVPWTFGQGTKVEIKRTVAAPSVFIFPPSDEQLKSGTASVVCLLNNFYPREAKVQWKVDNALQSGNSQESVTEQDSKDSTYSLSSTLTLSKADYEKHKVYACEVTHQGLSSPVTKSFNRGEC","EC50, NFAT activity assay",[1],0.22 µg/mL
same,"EC50, NFAT activity assay",[2],0.35 µg/mL
same,"EC50, NFAT activity assay",[3],14.3 µg/mL
"Anti-CD40-AF-1(4) (antibody, human IgG1, kappa, afucosylated N-glycan; compound 1 (disulfide-PEG12) on reduced interchain-disulfide cysteines, 4 per antibody, sites not stated, 4 BPM per antibody; also called Anti-CD40-AF-1 4-load) heavy: not shown light: DIQMTQSPSSLSASVGDRVTITCRSSQSLVHSNGNTFLHWYQQKPGKAPKLLIYTVSNRFSGVPSRFSGSGSGTDFTLTISSLQPEDFATYFCSQTTHVPWTFGQGTKVEIKRTVAAPSVFIFPPSDEQLKSGTASVVCLLNNFYPREAKVQWKVDNALQSGNSQESVTEQDSKDSTYSLSSTLTLSKADYEKHKVYACEVTHQGLSSPVTKSFNRGEC",Kd,FcgRIIb,22 µM
"Anti-CD40-AF-12 with 4 load (antibody, human IgG1, kappa, afucosylated N-glycan; compound 12 (maleimidocaproyl-PEG12) on reduced interchain-disulfide cysteines, 4 per antibody, sites not stated) heavy: not shown light: DIQMTQSPSSLSASVGDRVTITCRSSQSLVHSNGNTFLHWYQQKPGKAPKLLIYTVSNRFSGVPSRFSGSGSGTDFTLTISSLQPEDFATYFCSQTTHVPWTFGQGTKVEIKRTVAAPSVFIFPPSDEQLKSGTASVVCLLNNFYPREAKVQWKVDNALQSGNSQESVTEQDSKDSTYSLSSTLTLSKADYEKHKVYACEVTHQGLSSPVTKSFNRGEC","EC50 (read off the curve), FcγRIIIa NFAT reporter assay",[7],~0.002 µg/mL
